According to PMC8484898 (Bioactive Materials, 2021):

Biological target: T1, human receptor activator of nuclear factor-κB (RANK) (human, UniProt Q9Y6Q6 30-212)
T1 sequence (looked up): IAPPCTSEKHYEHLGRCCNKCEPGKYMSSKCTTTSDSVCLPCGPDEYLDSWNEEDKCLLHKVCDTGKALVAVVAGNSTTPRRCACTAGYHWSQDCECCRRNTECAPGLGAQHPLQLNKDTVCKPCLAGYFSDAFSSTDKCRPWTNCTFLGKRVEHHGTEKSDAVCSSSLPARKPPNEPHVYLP
Experiment: SPR

B1: human receptor activator of nuclear factor-κB ligand (RANKL) (ligand, UniProt O14788 140-317, looked up)
chain: IRAEKAMVDGSWLDLAKRSKLEAQPFAHLTINATDIPSGSHKVSLSSWYHDRGWAKISNMTFSNGKLIVNQDGFYYLYANICFRHHETSGDLATEYLQLMVYVTKTSIKIPSSHTLMKGGSTKYWSGNSEFHFYSINVGGFFKLRSGEEISIEVSNPSLLDPDQDATYFGAFKVRDID
Q: Does B1 bind?
A: Result: binds
